These results are taken from the supplement of paper PMC10065799, “High-throughput profiling of sequence recognition by tyrosine kinases and SH2 domains using bacterial peptide display” (eLife, 2023).

In one data set the target is Jak2 (UniProt O60674). Nature of the data set: phosphorylation enrichment, bacterial display (enrichment ratio); higher = better substrate or ligand; peptides without Tyr show the background.
The next data set addresses Fyn (UniProt P06241). Described as above.
The next data set relates to c-Src. Described as above.
The target of a further data set is MERTK (UniProt Q12866). The data set is described as above.
For a further data set, the target named is Fes (UniProt P07332). The data set is described as above.
A further data set concerns the target EPHB1 (UniProt P54762). Described as above.
Another data set deals with Fer (mouse). The description is as above.
In another data set the target is FGFR1 (UniProt P11362). Described as above.
A further data set has as its target FGFR3 (UniProt P22607). Described as above.
Another data set deals with c-Abl (mouse). The description is as above.
A further data set relates to AncSZ. The description is as above.
A further data set deals with Hck (UniProt P08631). The description is as above.
A further data set concerns the target EPHB2 (UniProt P29323). The description is as above.
The next data set concerns the target Grb2 SH2 (UniProt P62993). Nature of the data set: SH2 binding enrichment of the phosphorylated peptide, bacterial display (enrichment ratio); higher = better substrate or ligand; peptides without Tyr show the background.
For the next data set, the target named is SHP2-C SH2. Described as above.
The next data set has as its target c-Src SH2. The description is as above.
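Wherever SH2 binding enrichment of the phosphorylated peptide, bacterial display is given: peptide library displayed on the E. coli surface as eCPX fusions, selected cells deep-sequenced, score is each peptide's frequency after selection divided by its frequency in the input.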
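Wherever phosphorylation enrichment, bacterial display is given: 11-residue human phosphosite peptides and single-mutation variants displayed on the E. coli surface, counted by deep sequencing, each peptide's frequency after selection divided by its frequency in the unselected input library; frequency after pTyr selection over input frequency; kinase dosed for 20-30% of maximal phosphorylation in three min.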

Sequence of Hck (P08631 whole entry, looked up): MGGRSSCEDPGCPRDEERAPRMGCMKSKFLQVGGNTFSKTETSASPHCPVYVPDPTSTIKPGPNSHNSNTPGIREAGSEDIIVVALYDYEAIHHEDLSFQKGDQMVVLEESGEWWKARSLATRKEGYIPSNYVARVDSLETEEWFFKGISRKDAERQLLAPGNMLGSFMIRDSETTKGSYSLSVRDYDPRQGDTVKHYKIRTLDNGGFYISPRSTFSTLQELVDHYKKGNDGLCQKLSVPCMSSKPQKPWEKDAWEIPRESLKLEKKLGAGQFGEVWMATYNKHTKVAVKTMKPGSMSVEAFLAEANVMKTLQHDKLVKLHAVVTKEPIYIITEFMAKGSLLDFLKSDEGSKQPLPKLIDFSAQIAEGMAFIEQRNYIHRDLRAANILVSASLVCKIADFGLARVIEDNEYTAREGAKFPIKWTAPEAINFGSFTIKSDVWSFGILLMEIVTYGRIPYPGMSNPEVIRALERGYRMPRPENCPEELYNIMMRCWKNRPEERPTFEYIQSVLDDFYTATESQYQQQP
Sequence of Grb2 SH2 (P62993 whole entry, looked up): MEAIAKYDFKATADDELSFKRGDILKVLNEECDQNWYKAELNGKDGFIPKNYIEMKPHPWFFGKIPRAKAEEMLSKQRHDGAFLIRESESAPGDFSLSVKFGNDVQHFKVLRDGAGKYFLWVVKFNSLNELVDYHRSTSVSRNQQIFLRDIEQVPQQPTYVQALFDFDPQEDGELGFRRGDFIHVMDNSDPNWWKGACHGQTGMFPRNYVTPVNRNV
Sequence of Jak2 (O60674 whole entry, looked up): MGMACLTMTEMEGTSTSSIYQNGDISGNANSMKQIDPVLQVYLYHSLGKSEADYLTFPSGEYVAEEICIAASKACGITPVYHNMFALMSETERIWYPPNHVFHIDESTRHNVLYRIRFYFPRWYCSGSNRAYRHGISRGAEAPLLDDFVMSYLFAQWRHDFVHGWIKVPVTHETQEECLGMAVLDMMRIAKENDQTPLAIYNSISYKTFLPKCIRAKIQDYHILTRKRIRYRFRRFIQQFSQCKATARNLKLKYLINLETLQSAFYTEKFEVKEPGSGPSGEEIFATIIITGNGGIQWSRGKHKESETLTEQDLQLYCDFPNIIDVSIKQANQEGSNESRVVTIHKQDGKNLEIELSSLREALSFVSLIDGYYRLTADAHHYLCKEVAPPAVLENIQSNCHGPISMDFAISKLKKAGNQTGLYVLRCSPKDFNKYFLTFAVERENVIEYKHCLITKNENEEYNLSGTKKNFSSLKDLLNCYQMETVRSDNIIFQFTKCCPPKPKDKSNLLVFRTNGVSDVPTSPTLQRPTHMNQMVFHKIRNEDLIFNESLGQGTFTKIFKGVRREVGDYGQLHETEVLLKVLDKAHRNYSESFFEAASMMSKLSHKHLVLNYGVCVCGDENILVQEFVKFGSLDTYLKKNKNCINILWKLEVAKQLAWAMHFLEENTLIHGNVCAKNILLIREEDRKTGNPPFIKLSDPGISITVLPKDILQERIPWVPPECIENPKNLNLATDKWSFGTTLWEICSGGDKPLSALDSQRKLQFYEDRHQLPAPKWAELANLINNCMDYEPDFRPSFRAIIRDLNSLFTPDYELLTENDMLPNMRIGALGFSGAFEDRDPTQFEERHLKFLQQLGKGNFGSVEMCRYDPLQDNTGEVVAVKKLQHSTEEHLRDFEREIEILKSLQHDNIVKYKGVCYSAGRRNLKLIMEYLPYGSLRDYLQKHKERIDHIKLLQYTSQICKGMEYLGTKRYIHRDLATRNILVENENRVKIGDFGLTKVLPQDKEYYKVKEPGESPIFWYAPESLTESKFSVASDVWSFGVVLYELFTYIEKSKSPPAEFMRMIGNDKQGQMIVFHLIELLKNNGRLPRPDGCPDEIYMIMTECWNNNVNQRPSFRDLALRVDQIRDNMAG
Sequence of Fes (P07332 whole entry, looked up): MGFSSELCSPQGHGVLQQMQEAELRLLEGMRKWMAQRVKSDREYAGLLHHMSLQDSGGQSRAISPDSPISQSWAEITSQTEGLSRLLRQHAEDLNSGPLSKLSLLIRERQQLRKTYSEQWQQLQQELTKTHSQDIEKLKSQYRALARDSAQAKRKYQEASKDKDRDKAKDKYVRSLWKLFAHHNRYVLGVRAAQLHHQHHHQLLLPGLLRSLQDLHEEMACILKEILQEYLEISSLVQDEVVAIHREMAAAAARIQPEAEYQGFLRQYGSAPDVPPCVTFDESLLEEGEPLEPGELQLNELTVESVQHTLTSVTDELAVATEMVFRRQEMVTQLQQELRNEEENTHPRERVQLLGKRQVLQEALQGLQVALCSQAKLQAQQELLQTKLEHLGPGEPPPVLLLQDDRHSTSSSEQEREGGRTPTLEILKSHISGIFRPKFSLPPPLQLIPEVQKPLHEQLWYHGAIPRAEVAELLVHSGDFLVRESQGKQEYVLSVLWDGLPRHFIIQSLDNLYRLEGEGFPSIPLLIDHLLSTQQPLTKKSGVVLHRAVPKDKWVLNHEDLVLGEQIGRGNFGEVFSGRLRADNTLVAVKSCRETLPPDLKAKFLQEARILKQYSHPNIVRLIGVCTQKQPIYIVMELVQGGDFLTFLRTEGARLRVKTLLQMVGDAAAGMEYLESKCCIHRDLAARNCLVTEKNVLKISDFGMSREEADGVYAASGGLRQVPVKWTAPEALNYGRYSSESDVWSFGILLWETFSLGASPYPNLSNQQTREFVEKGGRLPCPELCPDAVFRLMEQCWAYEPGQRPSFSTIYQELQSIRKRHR
Sequence of EPHB1 (P54762 whole entry, looked up): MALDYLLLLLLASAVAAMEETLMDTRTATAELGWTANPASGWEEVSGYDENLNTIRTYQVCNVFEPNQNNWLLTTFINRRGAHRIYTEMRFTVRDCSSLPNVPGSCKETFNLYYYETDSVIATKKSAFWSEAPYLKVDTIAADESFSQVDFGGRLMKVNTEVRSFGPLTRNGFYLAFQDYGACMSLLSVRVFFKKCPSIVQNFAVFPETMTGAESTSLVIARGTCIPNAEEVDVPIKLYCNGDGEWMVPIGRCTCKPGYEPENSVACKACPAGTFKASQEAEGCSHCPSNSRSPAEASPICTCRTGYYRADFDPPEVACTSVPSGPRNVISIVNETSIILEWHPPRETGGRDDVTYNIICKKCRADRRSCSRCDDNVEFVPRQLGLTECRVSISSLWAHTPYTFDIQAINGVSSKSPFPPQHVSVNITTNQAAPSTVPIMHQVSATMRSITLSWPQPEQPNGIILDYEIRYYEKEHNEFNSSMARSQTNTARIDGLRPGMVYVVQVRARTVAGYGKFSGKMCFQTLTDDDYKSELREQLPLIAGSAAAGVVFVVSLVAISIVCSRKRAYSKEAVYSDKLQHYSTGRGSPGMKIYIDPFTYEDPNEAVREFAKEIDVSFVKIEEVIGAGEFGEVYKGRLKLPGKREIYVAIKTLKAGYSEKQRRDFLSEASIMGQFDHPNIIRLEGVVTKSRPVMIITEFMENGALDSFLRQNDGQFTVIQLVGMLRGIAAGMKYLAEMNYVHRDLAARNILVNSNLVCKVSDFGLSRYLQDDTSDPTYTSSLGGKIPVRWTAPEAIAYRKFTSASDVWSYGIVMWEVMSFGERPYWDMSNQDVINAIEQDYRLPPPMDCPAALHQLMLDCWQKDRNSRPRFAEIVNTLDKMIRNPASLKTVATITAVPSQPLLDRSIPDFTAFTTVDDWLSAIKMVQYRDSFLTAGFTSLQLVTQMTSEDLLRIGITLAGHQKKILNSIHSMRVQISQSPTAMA
Sequence of MERTK (Q12866 whole entry, looked up): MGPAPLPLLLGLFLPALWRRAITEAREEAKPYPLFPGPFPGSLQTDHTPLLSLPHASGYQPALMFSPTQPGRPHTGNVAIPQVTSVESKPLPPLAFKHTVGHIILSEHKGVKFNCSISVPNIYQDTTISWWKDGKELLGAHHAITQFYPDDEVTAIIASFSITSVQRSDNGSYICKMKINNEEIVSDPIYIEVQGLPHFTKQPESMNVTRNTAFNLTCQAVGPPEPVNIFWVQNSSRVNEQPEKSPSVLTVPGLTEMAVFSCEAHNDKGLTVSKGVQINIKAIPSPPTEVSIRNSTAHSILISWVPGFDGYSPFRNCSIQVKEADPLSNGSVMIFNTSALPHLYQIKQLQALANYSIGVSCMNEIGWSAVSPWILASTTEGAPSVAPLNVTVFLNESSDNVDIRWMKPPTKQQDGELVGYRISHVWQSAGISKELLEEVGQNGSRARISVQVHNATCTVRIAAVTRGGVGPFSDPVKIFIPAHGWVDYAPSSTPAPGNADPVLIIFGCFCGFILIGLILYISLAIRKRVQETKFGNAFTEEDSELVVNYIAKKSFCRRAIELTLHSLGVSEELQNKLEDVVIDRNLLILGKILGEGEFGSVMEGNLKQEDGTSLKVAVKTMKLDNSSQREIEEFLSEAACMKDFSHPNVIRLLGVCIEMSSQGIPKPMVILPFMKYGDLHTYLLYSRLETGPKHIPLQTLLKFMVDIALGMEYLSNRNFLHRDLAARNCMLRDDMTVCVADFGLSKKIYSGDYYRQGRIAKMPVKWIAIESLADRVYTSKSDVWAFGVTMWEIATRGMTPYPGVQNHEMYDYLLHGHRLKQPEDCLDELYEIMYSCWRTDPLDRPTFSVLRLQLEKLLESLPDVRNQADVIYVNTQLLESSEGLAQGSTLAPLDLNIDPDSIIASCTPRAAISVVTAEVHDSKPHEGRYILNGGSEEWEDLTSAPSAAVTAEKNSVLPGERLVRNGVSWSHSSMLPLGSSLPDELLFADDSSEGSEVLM

FPQARYHWLVL [APTX_Y214_K211Q_YF]: the phosphorylation enrichment in the data set with Jak2 amounted to 1.28; with Fyn, 0.459; with c-Src, 0.522; with MERTK it was 1.24; in the data set with Fes it was 1.22; with EPHB1, 0.568. Also, the phosphorylation enrichment was 0.539 with Fer (mouse); 1.92 in the data set with FGFR1; 1.48 in the data set with FGFR3; 0.858 with c-Abl (mouse); 0.913 with AncSZ; 0.543 with Hck. Further, the phosphorylation enrichment with EPHB2 amounted to 0.597. Moreover, the SH2 binding enrichment was determined as 1.25 in the data set with Grb2 SH2, 1.47 in the data set with SHP2-C SH2 and 1.13 with c-Src SH2.
Turning to PLQNTYNFNVL [SLC4A1_Y553_K551N_YF], the phosphorylation enrichment came out at 0.959 in the data set with Jak2; 1.67 in the data set with Fyn; 2.52 in the data set on c-Src; 0.634 with MERTK; 1.43 in the data set with Fes; 0.798 with EPHB1. Also, the phosphorylation enrichment worked out at 0.812 in the data set with Fer (mouse); 0.803 with FGFR1; 0.616 in the data set with FGFR3; 0.893 in the data set with c-Abl (mouse); 0.891 with AncSZ; 0.57 with Hck. The phosphorylation enrichment with EPHB2 turned out to be 0.756. Moreover, the figures for the SH2 binding enrichment in the data set with Grb2 SH2, with SHP2-C SH2 and in the data set with c-Src SH2 were 0.85, 1.1 and 0.624, respectively.
As for PELINYQQHNS [BTK_Y361_H362Q], the phosphorylation enrichment with Jak2 came to 1.52; with Fyn it was 0.829; with c-Src, 0.969; with MERTK, 0.988; with Fes, 1.38; in the data set with EPHB1, 0.79. For the same sequence, the phosphorylation enrichment was determined as 0.742 in the data set on Fer (mouse); 0.763 with FGFR1; 0.79 with FGFR3; 1.22 in the data set on c-Abl (mouse); 1.1 with AncSZ; 1.25 with Hck. The phosphorylation enrichment with EPHB2 is 0.821. Besides, the SH2 binding enrichment with Grb2 SH2 turned out to be 0.753; with SHP2-C SH2, 0.732; in the data set with c-Src SH2, 0.491.
Consider FGLDHYQCDCT [PTGS1_Y54_R53H], for which the phosphorylation enrichment is 0.812 in the data set with Jak2; 0.379 in the data set with Fyn; 0.464 in the data set on c-Src; 0.489 in the data set with MERTK; 0.986 in the data set with Fes; 0.401 with EPHB1. Further, the phosphorylation enrichment in the data set on Fer (mouse) stood at 0.464; in the data set with FGFR1, 0.453; in the data set with FGFR3, 0.68; with c-Abl (mouse) it was 0.61; with AncSZ, 0.956; with Hck, 0.424. Further, in the data set with EPHB2, the phosphorylation enrichment came to 0.5. The results for the SH2 binding enrichment with Grb2 SH2, with SHP2-C SH2 and with c-Src SH2 were 1.13, 1.59 and 1.14, respectively.
With WIGRKYKKVRF [F8_Y442_R437W], the phosphorylation enrichment worked out at 0.571 in the data set with Jak2; 0.552 with Fyn; 0.619 with c-Src; 0.527 in the data set with MERTK; 0.611 with Fes; 0.547 in the data set with EPHB1. Also, the phosphorylation enrichment is 0.492 in the data set with Fer (mouse); 0.506 with FGFR1; 0.54 with FGFR3; 0.676 in the data set with c-Abl (mouse); 0.567 with AncSZ; 0.546 with Hck. The phosphorylation enrichment with EPHB2 is 0.518. Further, the SH2 binding enrichment with Grb2 SH2 came out at 1.28; in the data set with SHP2-C SH2, 0.456; with c-Src SH2, 0.388.
With SELVCYDARVH [MET_Y971_R970C], the phosphorylation enrichment with Jak2 worked out at 0.867; with Fyn, 0.603; with c-Src it was 0.482; with MERTK it was 0.496; with Fes it was 1.14; with EPHB1, 0.592. For the same sequence, the phosphorylation enrichment worked out at 0.49 with Fer (mouse); 0.547 with FGFR1; 0.679 with FGFR3; 0.721 in the data set with c-Abl (mouse); 1.07 in the data set on AncSZ; 0.816 in the data set with Hck. The phosphorylation enrichment with EPHB2 amounted to 0.673. Moreover, the SH2 binding enrichment in the data set with Grb2 SH2 was determined as 0.874; in the data set with SHP2-C SH2, 0.739; with c-Src SH2 it was 0.561.
Consider SIKHKYVTALY [KCNH2_Y611_D609H], for which the phosphorylation enrichment in the data set with Jak2 turned out to be 0.528; with Fyn, 0.43; in the data set on c-Src, 0.398; with MERTK, 0.407; in the data set with Fes, 0.582; in the data set with EPHB1, 0.399. Also, the phosphorylation enrichment worked out at 0.398 in the data set with Fer (mouse); 0.45 in the data set with FGFR1; 0.594 in the data set with FGFR3; 0.444 in the data set on c-Abl (mouse); 0.537 with AncSZ; 0.524 with Hck. For the same sequence, the phosphorylation enrichment with EPHB2 was 0.4. Besides, the SH2 binding enrichment with Grb2 SH2 was 0.761; with SHP2-C SH2, 0.63; with c-Src SH2 it was 0.484.
Take VAMDDYLKNVV [LRRK2_Y707_M712V]: the phosphorylation enrichment with Jak2 came out at 0.708; with Fyn, 0.364; in the data set with c-Src, 0.376; with MERTK it was 0.393; with Fes it was 0.919; with EPHB1, 0.482. Also, the phosphorylation enrichment came to 0.405 with Fer (mouse); 0.468 with FGFR1; 0.666 in the data set with FGFR3; 0.518 in the data set with c-Abl (mouse); 0.872 in the data set on AncSZ; 0.477 in the data set with Hck. Further, the phosphorylation enrichment with EPHB2 is 0.59. Also, the SH2 binding enrichment came out at 0.828 with Grb2 SH2, 0.648 with SHP2-C SH2 and 0.573 with c-Src SH2.
